{"source": "patent US7186695", "proteins": {"B1": {"name": "Recombinant human thioredoxin produced in E. coli (protein)", "chain": "MVKQIESKTAFQEALDAAGDKLVVVDFSATWCGPCKMIKPFFHSLSEKYSNVIFLEVDVDDCQDVASECEVKCMPTFQFFKKGQKVGEFSGANKEKLEATINELV"}}, "molecular_target": "70 kDa N-terminal fragment of fibronectin"}
{"protein": "B1", "values": [{"measurement": "thioredoxin-mediated reduction of the fibronectin fragment (free thiols labelled with MPB, SDS-PAGE, streptavidin peroxidase blot)", "value": "thioredoxin reduced one or more protein disulfide bonds in the 70 kDa N-terminal fragment of fibronectin"}]}
